The chains are these.
B1: dsGC (dsDNA)
DNA 1: CGGGGCGCCGCGGGGCCCCCGGCCCGCCCCGCGGGGCGCCGGGCCCCGCC
DNA 2: GGCGGGGCCCGGCGCCCCGCGGGGCGGGCCGGGGGCCCCGCGGCGCCCCG
B2: dsAT (dsDNA)
DNA 1: TTAATTAAATAAATTAAAAAATTTTTTAATTAAATTAATTAATAAATTAAAATAAATTTTTTAATTAAATTTTAA
DNA 2: TTAAAATTTAATTAAAAAATTTATTTTAATTTATTAATTAATTTAATTAAAAAATTTTTTAATTTATTTAATTAA
B3: ssAT (ssDNA)
DNA: B2 DNA 1

One data set deals with T1, His-GFP-KERP2Δ185-239 (Entamoeba histolytica, UniProt C4LZX9 1-184, del185-239).
T1 sequence: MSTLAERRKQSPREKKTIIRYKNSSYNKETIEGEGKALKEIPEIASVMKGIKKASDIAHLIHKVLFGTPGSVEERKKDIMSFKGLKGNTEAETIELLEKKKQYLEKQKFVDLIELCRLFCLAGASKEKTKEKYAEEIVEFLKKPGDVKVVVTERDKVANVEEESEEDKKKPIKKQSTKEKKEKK
Briefly: EMSA.
B1: the binding result is given as “no binding”.
Same read-out and setting: with B2 the entry was “binds”.
As for B3, the binding result is listed as “binds”.

The target in a further data set is T2, His-GFP-KERP2 (Entamoeba histolytica, UniProt C4LZX9 1-239).
T2 sequence: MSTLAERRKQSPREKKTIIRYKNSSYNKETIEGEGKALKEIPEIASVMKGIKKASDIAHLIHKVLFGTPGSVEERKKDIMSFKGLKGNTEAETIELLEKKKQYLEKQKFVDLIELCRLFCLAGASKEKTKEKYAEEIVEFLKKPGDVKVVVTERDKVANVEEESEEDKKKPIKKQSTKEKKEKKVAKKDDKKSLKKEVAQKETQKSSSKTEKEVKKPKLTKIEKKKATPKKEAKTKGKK
Briefly: EMSA.
B1: the binding result was “no binding”.
Consider B2, for which the binding result is reported as “binds”.
Same read-out and setting: with B3 the entry was “binds”.

Values taken from PMC13184332.
